Results published in paper PMC6036246, “SAV4189, a MarR-Family Regulator in Streptomyces avermitilis, Activates Avermectin Biosynthesis” (Frontiers in Microbiology, 2018).

The molecules below were run on T1, His6-SAV4189 (Streptomyces avermitilis), ORF:1042fb45 (assay: EMSA). Settings: EMSA as in Luo et al. 2014 (buffer not given), 0.15-0.3 nM DIG probe; footprinting 400 ng probe in 25 ul, 30 min at 25 C.
T1 sequence: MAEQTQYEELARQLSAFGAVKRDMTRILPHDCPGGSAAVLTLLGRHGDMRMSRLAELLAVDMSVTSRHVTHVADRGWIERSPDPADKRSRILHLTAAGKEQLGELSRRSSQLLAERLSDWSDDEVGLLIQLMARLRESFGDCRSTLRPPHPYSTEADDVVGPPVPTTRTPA

Molecule	binding
GACTGCCGGAACTCCATGCGCTGTGCCCTCCGGTTCGTGGTGTTACTTGGTTTTACCAAGTCAGAGCTTGGAAAGTCCAACAACATGTCTAGACTGCGTCGCATGCCACCTCGCCGAAGCTACGACCAGTACTGTTCCGCGGCCCGAGCCCTCGACGCCGTCGGTGACCGCTGGACCCTCCTGATCGTCCG (double strand) [aspB1p]	binds
CGTGTTCACTTCAGAAACCTCCCTGACGAGGCCGCGACGTTGCGGCCGAGGTGGCTGGAAGTCAACTCGGCCACACGTGCGACGTCAAGAAGTAAATACTTAACGAGATGGCAACGGTGCCATGCGTTCTCTAAGTGAAGGCAGGGGTGGCCGCGGAAAGCGTGCCATCCAAAAGGGTCGAATCGCCCATCTCGCTCAACGCGAGAGCGAGCGCTCCGAGCACCTCGGCGCGGCCCCCAAGTGCCCCTGGAAGCACCGAGAGTTGAC (double strand) [xylFp]	no binding
GACGACTCATATGCGGCAGGCCCTCCCCAGGACGTCGACAGCCGAAAGGCCTTTGGTTGTCCCCACAACCAGTTGTGACGAGACGACTCTATCCAGCAATCGCCCTCCCGCATATCCACTCGTCAAAGGCAACCCTCTCGGGCCATCTGTGCAGGTCAAGTGACCGGAGGGTAGCTAAGACCGTACCGCGCGGCAGTGCCCGAGCGGTGCGGCCTTGGCAACGTTGATC (double strand) [savR1p]	no binding
CATCACACCTCCCGTATTCGTTGCTTAGGGCAACCATAGGAAAGTTGGTTGCCGCAGGCAAACTAAATAGGGTCTTCAGGGATAAAAACTTGGCAAAGGCAAGTATTGGCAGGCGTAAAGCCGCAGGTGGGGAGGTCAGGAGCGGTCG (double strand) [4189p]	binds
TCCGGACTTGACTGATCTCGACAGTACTTGGCGCACTTGGCCCACTTGGGATCATTGCGGCGGTTGTTACCGCCCGTAAAGCACCATAAGCGCAGCGGGCGGGAGTTCAAACCCGATCAGCTTGGATAAGGTAAGCCTTACCTGTCAACGATCGTGAAGTCGGTGGTCCCCGCATGCCCTCGCCCGTCGCGGATGCCTACGCAAGGCTGACCGA (double strand) [2073p]	binds
TGACCCCTCCCGCCACTTCCCCCGGCACTTTCCATCGCTTCTCGCCGTGAATTGCAGAGATTCCCCACACACTTATCCCGTTATTAATTCAGAACAGCTTCCCGCATTCTTCTGCCCGCTTTCTTTCGTGCTAAACGCAAAGATTTCGCGAACACCAACCGGCTTAATTCGGGCAGGTCCCGCACGGGTCGTCCACTTGTGATCGACTCCACATCGCACCCCTTTCCTCCCGTATTTTCCGGACAAAATGGGGGTTATCGACGC (double strand) [ectAp]	binds
TCATGGGATCTCCGGTGCCGAAGAGGGGACGAGAGCCACTCGGATTTTCTATGGTTAGGCTTACCTAAGTCAACGGGTTCCCGACATCCCGTCGGTAAAATCGTACCCCCGATTCCGATCAAGCCCACAGGAAAAGCCCGCCCCCCGAAGGGAGCGGGCTTTCGCGCGGCGGGCGGGACTACGGCAGCGTCAGGATGTCCGCCCCGCTGTCCGT (double strand) [hmuOp]	binds
AATTGCTGGCCGAAGCCCGCGCGGGTGTGCAGGTCTGAAACCGCCGGGGGTGAGGTTAGGGGGGTGGGAAAACCTAGGGGTTGGTCCCCGGGGTGGCGCCGGATAGTGTCGAAACGGCTGAAACAGCATTACTGGAGCGGTTGAGAAAAGCAATCCCAGATTCTGTGCCAACGCGGGGAGAACGAGTGGAACTGGCGGATTCCGGCGACCTTTTGGAAATATTCGAGCGTACCGAGGAAATGGCGCGGCTCGCGCATGTGCTGGCGAGTGCCGGACAGGGCGAAGGCGGTGTGGTCCTCG (double strand) [olmRIIp]	binds
TTGATGACCTCGACCATGTGCACCGGGATACGGATGGTGCGGGCCTGGTCGGCCATGGCGCGGGTGATCGCCTGACGGATCCACCAGGTGGCGTACGTGGAGAACTTGTAGCCCTTGG (double strand) [hrdB]	no binding

What follows are molecules tested against T2, SAV4189 (His6-SAV4189) (Streptomyces avermitilis, UniProt Q82FR3) (assay: EMSA, release of SAV4189 from DIG-labelled promoter probe […]p). Settings: 62.5 nM His6-SAV4189, antibiotic in water.
T2 construct: gene SAVERM_4189; full-length, 171 residues (516-bp CDS), His6-tagged from pET-28a(+) (NdeI/EcoRI), E. coli BL21(DE3), Ni-NTA; tag removal not mentioned; MarR family said to be generally homodimeric
T2 sequence (Q82FR3 1-171): T1 sequence
Assay type: binding

Molecule	EMSA, release of SAV4189 from DIG-labelled promoter probe 4189p
CN[C@H]1C[C@@H](N)[C@H](O)[C@@H](O[C@@H]2O[C@H](CO)[C@H](O)[C@@H]3OC4(O[C@H]23)O[C@H]([C@@H](N)CO)[C@H](O)[C@H](O)[C@H]4O)[C@@H]1O (stereo partly drawn) [HygB, hygromycin B]	SAV4189-4189p complex was disrupted in dose-dependent manner by exogenous HygB and Thi

Each molecule was assayed on T1, His6-SAV4189 (Streptomyces avermitilis), ORF:1042fb45 (assay: competition). Settings: EMSA as in Luo et al. 2014 (buffer not given), 0.15-0.3 nM DIG probe; footprinting 400 ng probe in 25 ul, 30 min at 25 C.

Molecule	binding
CATCACACCTCCCGTATTCGTTGCTTAGGGCAACCATAGGAAAGTTGGTTGCCGCAGGCAAACTAAATAGGGTCTTCAGGGATAAAAACTTGGCAAAGGCAAGTATTGGCAGGCGTAAAGCCGCAGGTGGGGAGGTCAGGAGCGGTCG (double strand) [4189p]	binds
TTGATGACCTCGACCATGTGCACCGGGATACGGATGGTGCGGGCCTGGTCGGCCATGGCGCGGGTGATCGCCTGACGGATCCACCAGGTGGCGTACGTGGAGAACTTGTAGCCCTTGG (double strand) [hrdB]	no binding
